From patent US20060211075

T1: peptide 23, Dap-substituted pyrene derivative at Y+3 (not fully specified)
T1 chain: EEEIYGEXEA

B1: Fes/Fps (protein)
chain: MGFSSELCSPQGHGVLQQMQEAELRLLEGMRKWMAQRVKSDREYAGLLHHMSLQDSGGQSRAISPDSPISQSWAEITSQTEGLSRLLRQHAEDLNSGPLSKLSLLIRERQQLRKTYSEQWQQLQQELTKTHSQDIEKLKSQYRALARDSAQAKRKYQEASKDKDRDKAKDKYVRSLWKLFAHHNRYVLGVRAAQLHHQHHHQLLLPGLLRSLQDLHEEMACILKEILQEYLEISSLVQDEVVAIHREMAAAAARIQPEAEYQGFLRQYGSAPDVPPCVTFDESLLEEGEPLEPGELQLNELTVESVQHTLTSVTDELAVATEMVFRRQEMVTQLQQELRNEEENTHPRERVQLLGKRQVLQEALQGLQVALCSQAKLQAQQELLQTKLEHLGPGEPPPVLLLQDDRHSTSSSEQEREGGRTPTLEILKSHISGIFRPKFSLPPPLQLIPEVQKPLHEQLWYHGAIPRAEVAELLVHSGDFLVRESQGKQEYVLSVLWDGLPRHFIIQSLDNLYRLEGEGFPSIPLLIDHLLSTQQPLTKKSGVVLHRAVPKDKWVLNHEDLVLGEQIGRGNFGEVFSGRLRADNTLVAVKSCRETLPPDLKAKFLQEARILKQYSHPNIVRLIGVCTQKQPIYIVMELVQGGDFLTFLRTEGARLRVKTLLQMVGDAAAGMEYLESKCCIHRDLAARNCLVTEKNVLKISDFGMSREEADGVYAASGGLRQVPVKWTAPEALNYGRYSSESDVWSFGILLWETFSLGASPYPNLSNQQTREFVEKGGRLPCPELCPDAVFRLMEQCWAYEPGQRPSFSTIYQELQSIRKRHR
B2: Csk (protein)
chain: MSAIQAAWPSGTECIAKYNFHGTAEQDLPFCKGDVLTIVAVTKDPNWYKAKNKVGREGIIPANYVQKREGVKAGTKLSLMPWFHGKITREQAERLLYPPETGLFLVRESTNYPGDYTLCVSCDGKVEHYRIMYHASKLSIDEEVYFENLMQLVEHYTSDADGLCTRLIKPKVMEGTVAAQDEFYRSGWALNMKELKLLQTIGKGEFGDVMLGDYRGNKVAVKCIKNDATAQAFLAEASVMTQLRHSNLVQLLGVIVEEKGGLYIVTEYMAKGSLVDYLRSRGRSVLGGDCLLKFSLDVCEAMEYLEGNNFVHRDLAARNVLVSEDNVAKVSDFGLTKEASSTQDTGKLPVKWTAPEALREKKFSTKSDVWSFGILLWEIYSFGRVPYPRIPLKDVVPRVEKGYKMDAPDGCPPAVYEVMKNCWHLDAAMRPSFLQLREQLEHIKTHELHL
B3: LynB (protein)
chain: MGCIKSKGKDSLSDDGVDLKTQPVPESQLLPGQRFQTKDPEEQGDIVVALYPYDGIHPDDLSFKKGEKMKVLEEHGEWWKAKSLLTKKEGFIPSNYVAKLNTLETEEWFFKDITRKDAERQLLAPGNSAGAFLIRESETLKGSFSLSVRDFDPVHGDVIKHYKIRSLDNGGYYISPRITFPCISDMIKHYQKQADGLCRRLEKACISPKPQKPWDKDAWEIPRESIKLVKRLGAGQFGEVWMGYYNNSTKVAVKTLKPGTMSVQAFLEEANLMKTLQHDKLVRLYAVVTREEPIYIITEYMAKGSLLDFLKSDEGGKVLLPKLIDFSAQIAEGMAYIERKNYIHRDLRAANVLVSESLMCKIADFGLARVIEDNEYTAREGAKFPIKWTAPEAINFGCFTIKSDVWSFGILLYEIVTYGKIPYPGRTNADVMTALSQGYRMPRVENCPDELYDIMKMCWKEKAEERPTFDYLQSVLDDFYTATEGQYQQQP
B4: ZAP-70 (protein)
chain: MPDPAAHLPFFYGSISRAEAEEHLKLAGMADGLFLLRQCLRSLGGYVLSLVHDVRFHHFPIERQLNGTYAIAGGKAHCGPAELCEFYSRDPDGLPCNLRKPCNRPSGLEPQPGVFDCLRDAMVRDYVRQTWKLEGEALEQAIISQAPQVEKLIATTAHERMPWYHSSLTREEAERKLYSGAQTDGKFLLRPRKEQGTYALSLIYGKTVYHYLISQDKAGKYCIPEGTKFDTLWQLVEYLKLKADGLIYCLKEACPNSSASNASGAAAPTLPAHPSTLTHPQRRIDTLNSDGYTPEPARITSPDKPRPMPMDTSVYESPYSDPEELKDKKLFLKRDNLLIADIELGCGNFGSVRQGVYRMRKKQIDVAIKVLKQGTEKADTEEMMREAQIMHQLDNPYIVRLIGVCQAEALMLVMEMAGGGPLHKFLVGKREEIPVSNVAELLHQVSMGMKYLEEKNFVHRDLAARNVLLVNRHYAKISDFGLSKALGADDSYYTARSAGKWPLKWYAPECINFRKFSSRSDVWSYGVTMWEALSYGQKPYKKMKGPEVMAFIEQGKRMECPPECPPELYALMSDCWIYKWEDRPDFLTVEQRMRACYYSLASKVEGPPGSTQKAEAACA
B5: c-Met (protein)
chain: KKRKQIKDLGSELVRYDARVHTPHLDRLVSARSVSPTTEMVSNESVDYRATFPEDQFPNSSQNGSCRQVQYPLTDMSPILTSGDSDISSPLLQNTVHIDLSALNPELVQAVQHVVIGPSSLIVHFNEVIGRGHFGCVYHGTLLDNDGKKIHCAVKSLNRITDIGEVSQFLTEGIIMKDFSHPNVLSLLGICLRSEGSPLVVLPYMKHGDLRNFIRNETHNPTVKDLIGFGLQVAKGMKYLASKKFVHRDLAARNCMLDEKFTVKVADFGLARDMYDKEYYSVHNKTGAKLPVKWMALESLQTQKFTTKSDVWSFGVLLWELMTRGAPPYPDVNTFDITVYLLQGRRLLQPEYCPDPLYEVMLKCWHPKAEMRPSFSELVSRISAIFSTFIGEHYVHVNATYVNVKCVAPYPSLLSSEDNADDEVDTRPASFWETS
B6: Flt3 (protein)
chain: HKYKKQFRYESQLQMVQVTGSSDNEYFYVDFREYEYDLKWEFPRENLEFGKVLGSGAFGKVMNATAYGISKTGVSIQVAVKMLKEKADSSEREALMSELKMMTQLGSHENIVNLLGACTLSGPIYLIFEYCCYGDLLNYLRSKREKFHRTWTEIFKEHNFSFYPTFQSHPNSSMPGSREVQIHPDSDQISGLHGNSFHSEDEIEYENQKRLEEEEDLNVLTFEDLLCFAYQVAKGMEFLEFKSCVHRDLAARNVLVTHGKVVKICDFGLARDIMSDSNYVVRGNARLPVKWMAPESLFEGIYTIKSDVWSYGILLWEIFSLGVNPYPGIPVDANFYKLIQNGFKMDQPFYATEEIYIIMQSCWAFDSRKRPSFPNLTSFLGCQLADAEEAMYQNVDGRVSECPHTYQNRRPFSREMDLGLLSPQAQVEDS
B7: MLK1 (protein)
chain: PPIQLLEIDFAELTLEEIIGIGGFGKVYRAFWIGDEVAVKAARHDPDEDISQTIENVRQEAKLFAMLKHPNIIALRGVCLKEPNLCLVMEFARGGPLNRVLSGKRIPPDILVNWAVQIARGMNYLHDEAIVPIIHRDLKSSNILILQKVENGDLSNKILKITDFGLAREWHRTTKMSAAGTYAWMAPEVIRASMFSKGSDVWSYGVLLWELLTGEVPFRGIDGLAVAYGVAMNKLALPIPSTCPEPFAKLMEDCWNPDPHSRPSFTNILDQLTTIEESGFFE

Molecular target: T1, peptide 23, Dap-substituted pyrene …

Question: Which Km does the source give for B1 here?
Answer: Its Km is 60 µM.

Question: And the Vmax?
Answer: The Vmax was 3 µmol/min/mg.

Question: Which Km does the source give for B2 here?
Answer: The Km was 120 µM.

Question: What about the Vmax of the same protein?
Answer: The Vmax was 0.4 µmol/min/mg.

Question: With B3 as the protein, how does the Km read?
Answer: The Km was 130 µM.

Question: And the Vmax?
Answer: The Vmax was 4 µmol/min/mg.

Question: How did the “phosphorylation of the peptide (fluorescence)” value (“phosphorylation of the peptide” for short) turn out when B4 was run?
Answer: The value was “unable to effectively catalyze the phosphorylation of either 23 or 25”.

Question: With B5 as the protein, how does the “phosphorylation of the peptide” value read?
Answer: Its value is “unable to effectively catalyze the phosphorylation of either 23 or 25”.

Question: How did the Km turn out when B6 was run?
Answer: Its Km is 450 µM.

Question: What about the Vmax of the same protein?
Answer: Its Vmax is 4.9 µmol/min/mg.

Question: B7 was tested. Which “phosphorylation of the peptide” value did it give?
Answer: The value was “unable to effectively catalyze the phosphorylation of either 23 or 25”.
